# Reference: patent US20080182978A1, “ANTI-NGF ANTIBODIES AND METHODS USING SAME” (RINAT NEUROSCIENCE CORP, priority 2002, published 2008)
# B1: E3: humanized, affinity matured anti-NGF antagonist antibody; variable regions SEQ ID NO:1 and 2; human IgG2a (A330P331 to S330S331), kappa (antibody, V domains shown)
# VH: QVQLQESGPGLVKPSETLSLTCTVSGFSLIGYDLNWIRQPPGKGLEWIGIIWGDGTTDYNSAVKSRVTISKDTSKNQFSLKLSSVTAADTAVYYCARGGYWYATSYYFDYWGQGTLVTVS
# VL: DIQMTQSPSSLSASVGDRVTITCRASQSISNNLNWYQQKPGKAPKLLIYYTSRFHSGVPSRFSGSGSGTDFTFTISSLQPEDIATYYCQQEHTLPYTFGQGTKLEIKRT
# modifications: human IgG2a constant (A330S/P331S) and kappa constant missing
# Assay: Dose response of E3 on body weight in arthritic rats (Example 9)
# Format: in vivo, rat
# Protocol: The ability of E3 to produce reduction in pain in arthritic rats was further investigated by examining the dose response relationship between E3 administration and pain reduction. Rats were treated with adjuvant to induce arthritis as described above. Ten rats not injected with adjuvant were used as non-arthritic controls. Fourteen days after adjuvant injection, animals were qualified into the study based on the criteria stated above, randomized into eight groups of ten rats and tested for the intensity of their vocalization response. They were then dosed on day 14 with saline, or 0.003 mg/kg, 0.01 mg/kg, 0.03 mg/kg, 0.1 mg/kg, 0.3 mg/kg, 1 mg/kg or 5 mg/kg of E3 antibody as described above. Animals were tested for their vocalization response on days 16, 18, 20, and 24. Animals were redosed with saline or the same dose of E3 on day 18 after the vocalization testing. Animals were also weighed each day, starting at day 14. Thus, animals were dosed twice with a given dose of antibody or saline on days 14 and 18, and assessed for pain five times, on days 14, 16, 18, 20 and 24. Data are shown in Tables 20-22 and in FIGS. 20-22.
# The effect of treating animals with various doses of anti-NGF antibody E3 on body weight was statistically analyzed by using two-way ANOVA to compare the results obtained pairwise between arthritic animals treated with vehicle with those treated with a given dose of antibody E3. […] At all higher dose of E3, the difference between treated and untreated arthritic animals was significant (p= or <0.0001). […]
# [1] = E3 0.003 mg/kg on days 14+18, day 14
# [2] = E3 0.003 mg/kg on days 14+18, day 15
# [3] = E3 0.003 mg/kg on days 14+18, day 16
# [4] = E3 0.003 mg/kg on days 14+18, day 17
# [5] = E3 0.003 mg/kg on days 14+18, day 18
# [6] = E3 0.003 mg/kg on days 14+18, day 20
# [7] = E3 0.003 mg/kg on days 14+18, day 21
# [8] = E3 0.003 mg/kg on days 14+18, day 23
# [9] = E3 0.003 mg/kg on days 14+18, day 24
# [10] = E3 0.01 mg/kg on days 14+18, day 14
# [11] = E3 0.01 mg/kg on days 14+18, day 15
# [12] = E3 0.01 mg/kg on days 14+18, day 16
# [13] = E3 0.01 mg/kg on days 14+18, day 17
# [14] = E3 0.01 mg/kg on days 14+18, day 18
# [15] = E3 0.01 mg/kg on days 14+18, day 20
# [16] = E3 0.01 mg/kg on days 14+18, day 21
# [17] = E3 0.01 mg/kg on days 14+18, day 23
# [18] = E3 0.01 mg/kg on days 14+18, day 24
# [19] = E3 0.03 mg/kg on days 14+18, day 14
# [20] = E3 0.03 mg/kg on days 14+18, day 15
# [21] = E3 0.03 mg/kg on days 14+18, day 16
# [22] = E3 0.03 mg/kg on days 14+18, day 17
# [23] = E3 0.03 mg/kg on days 14+18, day 18
# [24] = E3 0.03 mg/kg on days 14+18, day 20
# [25] = E3 0.03 mg/kg on days 14+18, day 21
# [26] = E3 0.03 mg/kg on days 14+18, day 23
# [27] = E3 0.03 mg/kg on days 14+18, day 24
# [28] = E3 0.1 mg/kg on days 14+18, day 14
# [29] = E3 0.1 mg/kg on days 14+18, day 15
molecule,measurement,setting,value
B1,Body weight normalized to day 0,"E3 0.003 mg/kg on days 14+18, day 0",100.00
same,Body weight normalized to day 0,"E3 0.003 mg/kg on days 14+18, day 1",98.37
same,Body weight normalized to day 0,"E3 0.003 mg/kg on days 14+18, day 2",102.47
same,Body weight normalized to day 0,"E3 0.003 mg/kg on days 14+18, day 3",106.54
same,Body weight normalized to day 0,"E3 0.003 mg/kg on days 14+18, day 4",110.09
same,Body weight normalized to day 0,"E3 0.003 mg/kg on days 14+18, day 7",121.29
same,Body weight normalized to day 0,"E3 0.003 mg/kg on days 14+18, day 8",124.44
same,Body weight normalized to day 0,"E3 0.003 mg/kg on days 14+18, day 9",125.91
same,Body weight normalized to day 0,"E3 0.003 mg/kg on days 14+18, day 10",123.30
same,Body weight normalized to day 0,"E3 0.003 mg/kg on days 14+18, day 11",119.55
same,Body weight normalized to day 0,[1],111.50
same,Body weight normalized to day 14,[1],100.00
same,Body weight normalized to day 0,[2],110.63
same,Body weight normalized to day 14,[2],99.20
same,Body weight normalized to day 0,[3],111.08
same,Body weight normalized to day 14,[3],99.58
same,Body weight normalized to day 0,[4],112.06
same,Body weight normalized to day 14,[4],100.46
same,Body weight normalized to day 0,[5],112.60
same,Body weight normalized to day 14,[5],100.90
same,Body weight normalized to day 0,[6],114.17
same,Body weight normalized to day 14,[6],102.26
same,Body weight normalized to day 0,[7],115.25
same,Body weight normalized to day 14,[7],103.16
same,Body weight normalized to day 0,[8],118.48
same,Body weight normalized to day 14,[8],106.09
same,Body weight normalized to day 0,[9],118.58
same,Body weight normalized to day 14,[9],106.16
same,Body weight normalized to day 0,"E3 0.01 mg/kg on days 14+18, day 0",100.00
same,Body weight normalized to day 0,"E3 0.01 mg/kg on days 14+18, day 1",98.86
same,Body weight normalized to day 0,"E3 0.01 mg/kg on days 14+18, day 2",102.61
same,Body weight normalized to day 0,"E3 0.01 mg/kg on days 14+18, day 3",106.29
same,Body weight normalized to day 0,"E3 0.01 mg/kg on days 14+18, day 4",110.61
same,Body weight normalized to day 0,"E3 0.01 mg/kg on days 14+18, day 7",121.59
same,Body weight normalized to day 0,"E3 0.01 mg/kg on days 14+18, day 8",124.47
same,Body weight normalized to day 0,"E3 0.01 mg/kg on days 14+18, day 9",125.82
same,Body weight normalized to day 0,"E3 0.01 mg/kg on days 14+18, day 10",123.87
same,Body weight normalized to day 0,"E3 0.01 mg/kg on days 14+18, day 11",121.20
same,Body weight normalized to day 0,[10],111.80
same,Body weight normalized to day 14,[10],100.00
same,Body weight normalized to day 0,[11],110.85
same,Body weight normalized to day 14,[11],99.18
same,Body weight normalized to day 0,[12],110.98
same,Body weight normalized to day 14,[12],99.33
same,Body weight normalized to day 0,[13],111.42
same,Body weight normalized to day 14,[13],99.69
same,Body weight normalized to day 0,[14],112.54
same,Body weight normalized to day 14,[14],100.69
same,Body weight normalized to day 0,[15],114.82
same,Body weight normalized to day 14,[15],102.70
same,Body weight normalized to day 0,[16],114.76
same,Body weight normalized to day 14,[16],102.63
same,Body weight normalized to day 0,[17],116.76
same,Body weight normalized to day 14,[17],104.41
same,Body weight normalized to day 0,[18],116.56
same,Body weight normalized to day 14,[18],104.23
same,Body weight normalized to day 0,"E3 0.03 mg/kg on days 14+18, day 0",100.00
same,Body weight normalized to day 0,"E3 0.03 mg/kg on days 14+18, day 1",98.67
same,Body weight normalized to day 0,"E3 0.03 mg/kg on days 14+18, day 2",102.05
same,Body weight normalized to day 0,"E3 0.03 mg/kg on days 14+18, day 3",105.31
same,Body weight normalized to day 0,"E3 0.03 mg/kg on days 14+18, day 4",109.24
same,Body weight normalized to day 0,"E3 0.03 mg/kg on days 14+18, day 7",117.15
same,Body weight normalized to day 0,"E3 0.03 mg/kg on days 14+18, day 8",118.52
same,Body weight normalized to day 0,"E3 0.03 mg/kg on days 14+18, day 9",118.60
same,Body weight normalized to day 0,"E3 0.03 mg/kg on days 14+18, day 10",115.26
same,Body weight normalized to day 0,"E3 0.03 mg/kg on days 14+18, day 11",112.94
same,Body weight normalized to day 0,[19],108.37
same,Body weight normalized to day 14,[19],100.00
same,Body weight normalized to day 0,[20],108.68
same,Body weight normalized to day 14,[20],100.34
same,Body weight normalized to day 0,[21],109.21
same,Body weight normalized to day 14,[21],100.89
same,Body weight normalized to day 0,[22],110.16
same,Body weight normalized to day 14,[22],101.80
same,Body weight normalized to day 0,[23],111.14
same,Body weight normalized to day 14,[23],102.70
same,Body weight normalized to day 0,[24],113.17
same,Body weight normalized to day 14,[24],104.51
same,Body weight normalized to day 0,[25],113.80
same,Body weight normalized to day 14,[25],105.08
same,Body weight normalized to day 0,[26],114.93
same,Body weight normalized to day 14,[26],106.14
same,Body weight normalized to day 0,[27],114.99
same,Body weight normalized to day 14,[27],106.23
same,Body weight normalized to day 0,"E3 0.1 mg/kg on days 14+18, day 0",100.00
same,Body weight normalized to day 0,"E3 0.1 mg/kg on days 14+18, day 1",99.31
same,Body weight normalized to day 0,"E3 0.1 mg/kg on days 14+18, day 2",102.87
same,Body weight normalized to day 0,"E3 0.1 mg/kg on days 14+18, day 3",106.26
same,Body weight normalized to day 0,"E3 0.1 mg/kg on days 14+18, day 4",110.20
same,Body weight normalized to day 0,"E3 0.1 mg/kg on days 14+18, day 7",120.50
same,Body weight normalized to day 0,"E3 0.1 mg/kg on days 14+18, day 8",123.48
same,Body weight normalized to day 0,"E3 0.1 mg/kg on days 14+18, day 9",125.46
same,Body weight normalized to day 0,"E3 0.1 mg/kg on days 14+18, day 10",123.95
same,Body weight normalized to day 0,"E3 0.1 mg/kg on days 14+18, day 11",121.98
same,Body weight normalized to day 0,[28],113.90
same,Body weight normalized to day 14,[28],100.00
same,Body weight normalized to day 0,[29],113.66
same,Body weight normalized to day 14,[29],99.83
same,Body weight normalized to day 0,"E3 0.1 mg/kg on days 14+18, day 16",115.06
